Assay [1] concerns the target BG505 SOSIP.664-D7324 R308L trimer (unpurified, 293T) (HIV-1 (clade A, BG505)). Kind of assay: native gel or EMSA; BN-PAGE of unpurified Env proteins in 293T culture supernatants, Western blot with bNAb 2G12.
Assay [2] concerns the target BG505 SOSIP.664-D7324 trimer (unpurified, 293T) (HIV-1 (clade A, BG505)). The assay is described as above.
The target of assay [3] is BG505 SOSIP.v5.2 S306L/R308L-D7324 trimer (HIV-1 (clade A, BG505)). Kind of assay: native gel or EMSA; BN-PAGE of PGT145-purified trimers, Coomassie Blue stain. A general note: In EMSA bound probe runs differently from free probe, usually more slowly.
The target in assay [4] is BG505 SOSIP.664-D7324 S306L trimer (unpurified, 293T) (HIV-1 (clade A, BG505)). Nature of the assay: native gel or EMSA; BN-PAGE of unpurified Env proteins in 293T culture supernatants, Western blot with bNAb 2G12.
In assay [5] the target is BG505 SOSIP.v4.1-D7324 trimer (HIV-1 (clade A, BG505)). Nature of the assay: native gel or EMSA; BN-PAGE of PGT145-purified trimers, Coomassie Blue stain.
Assay [6] deals with BG505 SOSIP.v5.2-D7324 trimer (HIV-1 (clade A, BG505)). The assay is described as above.
Assay [7] deals with BG505 SOSIP.664-D7324 A316W trimer (unpurified, 293T) (HIV-1 (clade A, BG505)). Nature of the assay: native gel or EMSA; BN-PAGE of unpurified Env proteins in 293T culture supernatants, Western blot with bNAb 2G12.
Assay [8] deals with BG505 SOSIP.664-D7324 trimer (PGT145-purified, 293F) (HIV-1 (clade A, BG505)). Nature of the assay: native gel or EMSA; BN-PAGE of PGT145-purified trimers, Coomassie Blue stain.
Assay [9] addresses BG505 SOSIP.v4.1 S306L/R308L-D7324 trimer (HIV-1 (clade A, BG505)). The description is as above.

Among the data in paper PMC5798299 are stoichiometry N values, retold here.

For “BG505 SOSIP.664-D7324 R308L trimer (unpurified, 293T) (complex)”, the stoichiometry N (commonly the number of molecules, sites or subunits per partner or assembly) in assay [1] worked out at 3.

For “BG505 SOSIP.664-D7324 trimer (unpurified, 293T) (complex)”, the stoichiometry N in assay [2] turned out to be 3.

“BG505 SOSIP.v5.2 S306L/R308L-D7324 trimer (complex)” displayed a stoichiometry N in assay [3] of 3.

Take “BG505 SOSIP.664-D7324 S306L trimer (unpurified, 293T) (complex)”: the stoichiometry N in assay [4] worked out at 3.

Substance BG505 SOSIP.v4.1-D7324 trimer (complex) came in with a stoichiometry N in assay [5] of 3.

In assay [6], BG505 SOSIP.v5.2-D7324 trimer (complex) showed a stoichiometry N of 3.

Take “BG505 SOSIP.664-D7324 A316W trimer (unpurified, 293T) (complex)”: in [7], the stoichiometry N was determined as 3.

The substance “BG505 SOSIP.664-D7324 trimer (PGT145-purified, 293F) (complex)” yielded a stoichiometry N in assay [8] of 3.

As to “BG505 SOSIP.v4.1 S306L/R308L-D7324 trimer (complex)”, the stoichiometry N in [9] is 3.
